Source: PMC9063451

B1: NbBotI-01 (VHH)
VHH: QVQLQESGGGLVQPGGSLRLSCAASGFSFTVYYMSWVRQTPGKGLEWVSGINRDGSIIDYADSVKGRFTISRDNAENTLYLEMNSRKSEDTALNDCTPHVRGGRYRTRGQGTQVTVSS
B2: NbBotI-17 (VHH)
VHH: QVQLQESGGGPVQAGGSLRLSCAASGFTDSNKNVHWFRQVPGKQCERVSTITSNGVTNYADSVKGRFTASRDNSKNTVYLQMNTLKTEDTAVYYCVSVYIWESIGPSQRCRGQGTQVTVSS

Legend:
[1] = target: BotI-like toxin (Buthus occitanus tunetanus) (UniProt P01488); assay: SPR
[2] = target: BotI-like toxin (Buthus occitanus tunetanus) (UniProt P01488)

Row | Binder | Kd [1] [nM] | koff [1] [s⁻¹] | kon [1] [M⁻¹ s⁻¹] | neutralisation of the toxin's lethality in Swiss mice (i.c.v. injection after 1 h preincubation at 37°C); 2 or 4 molar excess of Nb: 50% neutralisation at 6 and 7 LD50 (LD50 of toxin (50% neutralised)) [2]
1 | B1 | 0.0953 | 0.000464 | 4.87e+06 | 
2 | B2 | 4.72 | 0.0308 | 6.52e+06 | 7
